Target: Biotinylated C4b (UniProt P0C0L4)
Assay: SPR, biotinylated C4b on streptavidin chip, 1:1 steady-state affinity model

Kd: 2900 nM
B1: C4BP(1-4) (protein)
chain: AGNCGPPPTLSFAAPMDITLTETRFKTGTTLKYTCLPGYVRSHSTQTLTCNSDGEWVYNTFCIYKRCRHPGELRNGQVEIKTDLSFGSQIEFSCSEGFFLIGSTTSRCEVQDRGVGWSHPLPQCEIVKCKPPPDIRNGRHSGEENFYAYGFSVTYSCDPRFSLLGHASISCTVENETIGVWRPSPPTCEKITCRKPDVSHGEMVSGFGPIYNYKDTIVFKCQKGFVLRGSSVIHCDADSKWNPSPPACEP

Reference: patent EP4559472A1
